Starred links: 1 amine or outer side, 2 acyl side, 3 side chain; linkers in the order of their positions; H or OH if unused. Non-standard residues stand in square brackets, D forms with d. Primed or numbered codes have the meaning given here. *: point of attachment. C20 diacid = O=C(O)CCCCCCCCCCCCCCCCCCC(=O)*; C18 diacid = O=C(O)CCCCCCCCCCCCCCCCC(=O)*; C16 diacid = O=C(O)CCCCCCCCCCCCCCC(=O)*; γGlu = O=C(O)[C@H](CCC(=O)[*:2])N[*:1]; Inp′ = not defined here; Trx′ = not defined here; AEEA = NCCOCCOCC(=O)O

To fix the notation:
B1: polypeptide derivative M20 (peptide)
peptide: {C20 diacid-Trx′-AEEA-AEEA}-ASQLSTAATQRLADFLRHFTDRDRDILPPTNVGSNTP-NH2
modifications: reading uncertain
B2: polypeptide derivative M23 (peptide)
peptide: {C16 diacid-γGlu}-ASQLSTAATQRLADFLRHFTDRDRDILPPTNVGSNTP-NH2
SMILES: CC[C@H](C)[C@H](NC(=O)[C@H](CC(=O)O)NC(=O)[C@H](CCCNC(=N)N)NC(=O)[C@H](CC(=O)O)NC(=O)[C@H](CCCNC(=N)N)NC(=O)[C@H](CC(=O)O)NC(=O)[C@@H](NC(=O)[C@H](Cc1ccccc1)NC(=O)[C@H](Cc1c[nH]cn1)NC(=O)[C@H](CCCNC(=N)N)NC(=O)[C@H](CC(C)C)NC(=O)[C@H](Cc1ccccc1)NC(=O)[C@H](CC(=O)O)NC(=O)[C@H](C)NC(=O)[C@H](CC(C)C)NC(=O)[C@H](CCCNC(=N)N)NC(=O)[C@H](CCC(N)=O)NC(=O)[C@@H](NC(=O)[C@H](C)NC(=O)[C@H](C)NC(=O)[C@@H](NC(=O)[C@H](CO)NC(=O)[C@H](CC(C)C)NC(=O)[C@H](CCC(N)=O)NC(=O)[C@H](CO)NC(=O)[C@H](C)NC(=O)CC[C@H](NC(=O)CCCCCCCCCCCCCCC(=O)O)C(=O)O)[C@@H](C)O)[C@@H](C)O)[C@@H](C)O)C(=O)N[C@@H](CC(C)C)C(=O)N1CCC[C@H]1C(=O)N1CCC[C@H]1C(=O)N[C@H](C(=O)N[C@@H](CC(N)=O)C(=O)N[C@H](C(=O)NCC(=O)N[C@@H](CO)C(=O)N[C@@H](CC(N)=O)C(=O)N[C@H](C(=O)N1CCC[C@H]1C(N)=O)[C@@H](C)O)C(C)C)[C@@H](C)O
B3: polypeptide derivative M19 (peptide)
peptide: {C20 diacid}-D[AEEA][AEEA]ASQLSTAATQRLADFLRHFTDRDRDILPPTNVGSNTP-NH2
SMILES: CC[C@H](C)[C@H](NC(=O)[C@H](CC(=O)O)NC(=O)[C@H](CCCNC(=N)N)NC(=O)[C@H](CC(=O)O)NC(=O)[C@H](CCCNC(=N)N)NC(=O)[C@H](CC(=O)O)NC(=O)[C@@H](NC(=O)[C@H](Cc1ccccc1)NC(=O)[C@H](Cc1c[nH]cn1)NC(=O)[C@H](CCCNC(=N)N)NC(=O)[C@H](CC(C)C)NC(=O)[C@H](Cc1ccccc1)NC(=O)[C@H](CC(=O)O)NC(=O)[C@H](C)NC(=O)[C@H](CC(C)C)NC(=O)[C@H](CCCNC(=N)N)NC(=O)[C@H](CCC(N)=O)NC(=O)[C@@H](NC(=O)[C@H](C)NC(=O)[C@H](C)NC(=O)[C@@H](NC(=O)[C@H](CO)NC(=O)[C@H](CC(C)C)NC(=O)[C@H](CCC(N)=O)NC(=O)[C@H](CO)NC(=O)[C@H](C)NC(=O)COCCOCCNC(=O)COCCOCCNC(=O)[C@H](CC(=O)O)NC(=O)CCCCCCCCCCCCCCCCCCC(=O)O)[C@@H](C)O)[C@@H](C)O)[C@@H](C)O)C(=O)N[C@@H](CC(C)C)C(=O)N1CCC[C@H]1C(=O)N1CCC[C@H]1C(=O)N[C@H](C(=O)N[C@@H](CC(N)=O)C(=O)N[C@H](C(=O)NCC(=O)N[C@@H](CO)C(=O)N[C@@H](CC(N)=O)C(=O)N[C@H](C(=O)N1CCC[C@H]1C(N)=O)[C@@H](C)O)C(C)C)[C@@H](C)O
B4: polypeptide derivative M22 (peptide)
peptide: {C18 diacid-γGlu}-ASQLSTAATQRLADFLRHFTDRDRDILPPTNVGSNTP-NH2
SMILES: CC[C@H](C)[C@H](NC(=O)[C@H](CC(=O)O)NC(=O)[C@H](CCCNC(=N)N)NC(=O)[C@H](CC(=O)O)NC(=O)[C@H](CCCNC(=N)N)NC(=O)[C@H](CC(=O)O)NC(=O)[C@@H](NC(=O)[C@H](Cc1ccccc1)NC(=O)[C@H](Cc1c[nH]cn1)NC(=O)[C@H](CCCNC(=N)N)NC(=O)[C@H](CC(C)C)NC(=O)[C@H](Cc1ccccc1)NC(=O)[C@H](CC(=O)O)NC(=O)[C@H](C)NC(=O)[C@H](CC(C)C)NC(=O)[C@H](CCCNC(=N)N)NC(=O)[C@H](CCC(N)=O)NC(=O)[C@@H](NC(=O)[C@H](C)NC(=O)[C@H](C)NC(=O)[C@@H](NC(=O)[C@H](CO)NC(=O)[C@H](CC(C)C)NC(=O)[C@H](CCC(N)=O)NC(=O)[C@H](CO)NC(=O)[C@H](C)NC(=O)CC[C@H](NC(=O)CCCCCCCCCCCCCCCCC(=O)O)C(=O)O)[C@@H](C)O)[C@@H](C)O)[C@@H](C)O)C(=O)N[C@@H](CC(C)C)C(=O)N1CCC[C@H]1C(=O)N1CCC[C@H]1C(=O)N[C@H](C(=O)N[C@@H](CC(N)=O)C(=O)N[C@H](C(=O)NCC(=O)N[C@@H](CO)C(=O)N[C@@H](CC(N)=O)C(=O)N[C@H](C(=O)N1CCC[C@H]1C(N)=O)[C@@H](C)O)C(C)C)[C@@H](C)O
B5: polypeptide derivative M24 (peptide)
peptide: {C20 diacid-γGlu-AEEA-AEEA-AEEA-AEEA}-ASQLSTAATQRLADFLRHFTDRDRDILPPTNVGSNTP-NH2
SMILES: CC[C@H](C)[C@H](NC(=O)[C@H](CC(=O)O)NC(=O)[C@H](CCCNC(=N)N)NC(=O)[C@H](CC(=O)O)NC(=O)[C@H](CCCNC(=N)N)NC(=O)[C@H](CC(=O)O)NC(=O)[C@@H](NC(=O)[C@H](Cc1ccccc1)NC(=O)[C@H](Cc1c[nH]cn1)NC(=O)[C@H](CCCNC(=N)N)NC(=O)[C@H](CC(C)C)NC(=O)[C@H](Cc1ccccc1)NC(=O)[C@H](CC(=O)O)NC(=O)[C@H](C)NC(=O)[C@H](CC(C)C)NC(=O)[C@H](CCCNC(=N)N)NC(=O)[C@H](CCC(N)=O)NC(=O)[C@@H](NC(=O)[C@H](C)NC(=O)[C@H](C)NC(=O)[C@@H](NC(=O)[C@H](CO)NC(=O)[C@H](CC(C)C)NC(=O)[C@H](CCC(N)=O)NC(=O)[C@H](CO)NC(=O)[C@H](C)NC(=O)COCCOCCNC(=O)COCCOCCNC(=O)COCCOCCNC(=O)COCCOCCNC(=O)CC[C@H](NC(=O)CCCCCCCCCCCCCCCCCCC(=O)O)C(=O)O)[C@@H](C)O)[C@@H](C)O)[C@@H](C)O)C(=O)N[C@@H](CC(C)C)C(=O)N1CCC[C@H]1C(=O)N1CCC[C@H]1C(=O)N[C@H](C(=O)N[C@@H](CC(N)=O)C(=O)N[C@H](C(=O)NCC(=O)N[C@@H](CO)C(=O)N[C@@H](CC(N)=O)C(=O)N[C@H](C(=O)N1CCC[C@H]1C(N)=O)[C@@H](C)O)C(C)C)[C@@H](C)O
B6: polypeptide derivative M21 (peptide)
peptide: {C20 diacid-Inp′-AEEA-AEEA}-ASQLSTAATQRLADFLRHFTDRDRDILPPTNVGSNTP-NH2

The target of this assay is T1, human amylin receptor (AMY3) on CHO-K1/Ga15/AMY3 amylin receptor/CRE-luc cells (human, UniProt P30988 25-474; O60896 24-148).
T1 sequence (looked up) 1: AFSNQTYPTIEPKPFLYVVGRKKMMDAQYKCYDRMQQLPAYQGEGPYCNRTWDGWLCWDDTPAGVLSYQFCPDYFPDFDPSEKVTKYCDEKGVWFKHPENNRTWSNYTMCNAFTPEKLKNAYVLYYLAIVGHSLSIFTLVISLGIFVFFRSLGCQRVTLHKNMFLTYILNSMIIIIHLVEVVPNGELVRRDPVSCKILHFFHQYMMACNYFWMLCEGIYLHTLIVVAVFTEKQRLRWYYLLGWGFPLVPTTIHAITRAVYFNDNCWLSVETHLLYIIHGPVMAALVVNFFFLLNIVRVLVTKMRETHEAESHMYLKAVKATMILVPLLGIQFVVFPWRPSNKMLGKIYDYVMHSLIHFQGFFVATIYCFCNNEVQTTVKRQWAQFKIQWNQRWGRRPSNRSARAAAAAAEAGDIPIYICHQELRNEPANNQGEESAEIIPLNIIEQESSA
T1 sequence (looked up) 2: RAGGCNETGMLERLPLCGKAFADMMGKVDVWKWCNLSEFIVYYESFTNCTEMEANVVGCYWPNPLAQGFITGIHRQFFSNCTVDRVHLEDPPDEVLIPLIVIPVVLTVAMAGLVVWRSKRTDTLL
The experiment in a line: cell-based or functional assay.
Take B1: the “EC50/nM, CRE-luciferase reporter in amylin receptor/CRE-luc CHO cells” value (shortened to “EC50/nM … in amylin receptor/CRE-luc CHO cells”) was found to be 0.017 nM and the “Relative activity (the EC50 ratio of Cagrilintide to the compound)” value turned out to be 171%.

B2: the “EC50/nM … in amylin receptor/CRE-luc CHO cells” value was determined as 0.017 nM and the “Relative activity (the EC50 ratio of Cagrilintide to the compound)” value was determined as 182%.

For the molecule B3, the “EC50/nM … in amylin receptor/CRE-luc CHO cells” value is 0.036 nM and the “Relative activity (the EC50 ratio of Cagrilintide to the compound)” value was found to be 80%.

On to B4, for which the “EC50/nM … in amylin receptor/CRE-luc CHO cells” value stood at 0.016 nM and the “Relative activity (the EC50 ratio of Cagrilintide to the compound)” value was 198%.

Take B5: the “EC50/nM … in amylin receptor/CRE-luc CHO cells” value came out at 0.066 nM and the “Relative activity (the EC50 ratio of Cagrilintide to the compound)” value came to 47%.

Regarding B6, the “EC50/nM … in amylin receptor/CRE-luc CHO cells” value was 0.023 nM and the “Relative activity (the EC50 ratio of Cagrilintide to the compound)” value was 126%.

These data come from EP4663654A1 (Hangzhou Sciwind Biosciences Co., Ltd., dated 2025).
